Experimental data: article PMC4899725, “The transcriptional regulator GalR self-assembles to form highly regular tubular structures” (Scientific Reports, 2016)

What was measured:
[1] = biological target: the molecule itself; test: light scattering; 2 uM GalR diluted from a stock in 1 M NaCl into 50 mM TrisCl pH 8 with 78-1000 mM NaCl (or 25-700 mM Na2SO4 with 78 mM NaCl); 365 nm, stirring, room temperature; dimers to aggregates at low ionic strength
[2] = biological target: the molecule itself; test: dynamic light scattering; 6.4 uM GalR^T322R, 20 °C, 250 mM NaCl; monomers to dimer
[3] = biological target: the molecule itself; test: negative staining transmission electron microscopy; 3.8 uM GalR, 50 mM Tris:Cl pH 8, 250 mM NaCl unless otherwise stated (GalR^N48I: 150 mM NaCl); flash-frozen, stained with 1% phosphotungstic acid; dimers to ordered aggregates

B1: Gal repressor GalR, wild type (GalR^WT), hexahistidine-tagged (natural protein, Escherichia coli, UniProt P03024 1-343, looked up)
chain: MATIKDVARLAGVSVATVSRVINNSPKASEASRLAVHSAMESLSYHPNANARALAQQTTETVGLVVGDVSDPFFGAMVKAVEQVAYHTGNFLLIGNGYHNEQKERQAIEQLIRHRCAALVVHAKMIPDADLASLMKQMPGMVLINRILPGFENRCIALDDRYGAWLATRHLIQQGHTRIGYLCSNHSISDAEDRLQGYYDALAESGIAANDRLVTFGEPDESGGEQAMTELLGRGRNFTAVACYNDSMAAGAMGVLNDNGIDVPGEISLIGFDDVLVSRYVRPRLTTVRYPIVTMATQAAELALALADNRPLPEITNVFSPTLVRRHSVSTPSLEASHHATSD
notes: GalR, the Gal repressor of Escherichia coli; 37 kDa subunit
B1: binds [1].

B2: GalR^T322R, hexahistidine-tagged (natural protein, Escherichia coli, UniProt P03024 1-343, looked up)
chain: MATIKDVARLAGVSVATVSRVINNSPKASEASRLAVHSAMESLSYHPNANARALAQQTTETVGLVVGDVSDPFFGAMVKAVEQVAYHTGNFLLIGNGYHNEQKERQAIEQLIRHRCAALVVHAKMIPDADLASLMKQMPGMVLINRILPGFENRCIALDDRYGAWLATRHLIQQGHTRIGYLCSNHSISDAEDRLQGYYDALAESGIAANDRLVTFGEPDESGGEQAMTELLGRGRNFTAVACYNDSMAAGAMGVLNDNGIDVPGEISLIGFDDVLVSRYVRPRLTTVRYPIVTMATQAAELALALADNRPLPEITNVFSPRLVRRHSVSTPSLEASHHATSD
notes: GalR of Escherichia coli with T322R; Tetramer formation is strongly impaired in this mutant (cited); also called non-tetramerizing GalR mutant; source: expressed from vector plasmid pSEM1026 under an L-arabinose inducible promoter, purified
B2: binds [2].

B3: GalR^N48I, hexahistidine-tagged (natural protein, Escherichia coli, UniProt P03024 1-343, looked up)
chain: MATIKDVARLAGVSVATVSRVINNSPKASEASRLAVHSAMESLSYHPIANARALAQQTTETVGLVVGDVSDPFFGAMVKAVEQVAYHTGNFLLIGNGYHNEQKERQAIEQLIRHRCAALVVHAKMIPDADLASLMKQMPGMVLINRILPGFENRCIALDDRYGAWLATRHLIQQGHTRIGYLCSNHSISDAEDRLQGYYDALAESGIAANDRLVTFGEPDESGGEQAMTELLGRGRNFTAVACYNDSMAAGAMGVLNDNGIDVPGEISLIGFDDVLVSRYVRPRLTTVRYPIVTMATQAAELALALADNRPLPEITNVFSPTLVRRHSVSTPSLEASHHATSD
notes: GalR of Escherichia coli with N48I; source: expressed from vector plasmid pSEM1026 under an L-arabinose inducible promoter, purified
B3: binds [3].
